Patent US20170131280A1 (GENERAL HOSPITAL, published 2017)

What was measured:
[1] = biological target: mTor, endogenous protein of 293T cells (human, UniProt P42345 1-2549); experiment: co-immunoprecipitation from 293T cell lysates, western blot (FIG. 1E)
Procedure: (§1) Rictor interaction required the C-terminal portion of SAKT that encompass the cytoplasmic region.
(§2) Protein Analyses. For immunoblotting, cells were lysed in RIPA buffer (Cell Signaling Technology) supplemented with HALT™ protease and phosphatase inhibitor cocktails (Thermo Scientific). Western blot analysis was carried out according to standard methods (8). Equal amounts of total protein from lysates were subjected to SDS-PAGE, transferred to PVDF membrane (Invitrogen), and membranes were probed by overnight incubation with appropriate primary antibodies. Bound antibodies were visualized with HRP-conjugated secondary antibodies and ECL detection reagent (GE Healthcare) and quantification of protein bands (Multigauge V3.0, Fujifilm). For standard immunoprecipitation experiments, proteins were extracted by incubation on ice in IP Lysis Buffer and all protein extracts were pre-cleared with Protein-A/G agarose (Santa Cruz Biotechnology) and incubated with Protein A/G agarose bound with antibodies against FLAG M2 (Sigma), Rictor (#9476, Cell Signaling Technology), and SAKT (Santa Cruz Biotechnology) or control IgG from mouse, and rabbit at 4° C. Immunoprecipitates were washed four times with lysis buffer and boiled for 10 minutes in 1× LDS sample buffer (Invitrogen). The eluted proteins were immunoblotted with the antibodies indicated above. […]

[2] = biological target: Raptor, endogenous protein of 293T cells (UniProt Q8N122 1-1335); experiment: as above
Procedure: as §1, §2

[3] = biological target: Raptor, endogenous protein of murine BM cells (mouse, UniProt Q8K4Q0 1-1335); experiment: co-immunoprecipitation from BM cell lysates, western blot (FIG. 1E)
Procedure: as §1, §2

[4] = biological target: mTor, endogenous protein of murine BM cells (mouse, UniProt Q9JLN9 1-2549); experiment: as above
Procedure: as §1, §2

Chain of Raptor, endogenous protein of murine BM cells (Q8K4Q0 whole entry): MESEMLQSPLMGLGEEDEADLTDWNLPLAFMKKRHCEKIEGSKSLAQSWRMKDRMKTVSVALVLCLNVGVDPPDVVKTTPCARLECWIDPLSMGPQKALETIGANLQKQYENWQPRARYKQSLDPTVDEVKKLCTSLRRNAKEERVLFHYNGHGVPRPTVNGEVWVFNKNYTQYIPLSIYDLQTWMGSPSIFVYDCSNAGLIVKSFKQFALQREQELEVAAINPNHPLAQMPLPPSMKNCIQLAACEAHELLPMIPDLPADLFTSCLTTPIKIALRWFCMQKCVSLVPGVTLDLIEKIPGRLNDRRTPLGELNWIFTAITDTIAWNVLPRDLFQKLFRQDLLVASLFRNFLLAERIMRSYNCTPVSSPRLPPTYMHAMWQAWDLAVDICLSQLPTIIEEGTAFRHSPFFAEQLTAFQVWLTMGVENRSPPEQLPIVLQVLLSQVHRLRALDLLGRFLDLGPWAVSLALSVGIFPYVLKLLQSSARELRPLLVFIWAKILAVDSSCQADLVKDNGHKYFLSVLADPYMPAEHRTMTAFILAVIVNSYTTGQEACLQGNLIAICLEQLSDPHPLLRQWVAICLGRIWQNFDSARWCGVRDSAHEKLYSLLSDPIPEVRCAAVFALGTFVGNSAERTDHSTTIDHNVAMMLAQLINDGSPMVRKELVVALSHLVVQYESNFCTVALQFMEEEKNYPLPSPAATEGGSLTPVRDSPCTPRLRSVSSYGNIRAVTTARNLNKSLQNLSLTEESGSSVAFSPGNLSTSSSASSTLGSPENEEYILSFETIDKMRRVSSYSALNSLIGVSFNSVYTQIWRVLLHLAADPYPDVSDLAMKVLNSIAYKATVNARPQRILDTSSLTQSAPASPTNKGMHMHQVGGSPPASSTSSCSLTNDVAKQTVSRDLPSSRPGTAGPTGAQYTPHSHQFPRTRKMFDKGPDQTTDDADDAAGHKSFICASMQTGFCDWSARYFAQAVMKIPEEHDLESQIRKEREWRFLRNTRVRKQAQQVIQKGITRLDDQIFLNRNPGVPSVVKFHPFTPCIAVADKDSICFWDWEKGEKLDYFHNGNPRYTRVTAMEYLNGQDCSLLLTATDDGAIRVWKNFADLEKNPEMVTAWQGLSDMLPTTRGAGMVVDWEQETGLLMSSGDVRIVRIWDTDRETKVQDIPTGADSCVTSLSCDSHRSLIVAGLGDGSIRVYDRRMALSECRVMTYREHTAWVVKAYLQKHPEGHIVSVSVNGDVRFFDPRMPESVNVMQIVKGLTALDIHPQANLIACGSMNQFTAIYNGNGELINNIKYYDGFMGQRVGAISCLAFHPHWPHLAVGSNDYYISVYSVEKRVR
Chain of Raptor, endogenous protein of 293T cells (Q8N122 whole entry): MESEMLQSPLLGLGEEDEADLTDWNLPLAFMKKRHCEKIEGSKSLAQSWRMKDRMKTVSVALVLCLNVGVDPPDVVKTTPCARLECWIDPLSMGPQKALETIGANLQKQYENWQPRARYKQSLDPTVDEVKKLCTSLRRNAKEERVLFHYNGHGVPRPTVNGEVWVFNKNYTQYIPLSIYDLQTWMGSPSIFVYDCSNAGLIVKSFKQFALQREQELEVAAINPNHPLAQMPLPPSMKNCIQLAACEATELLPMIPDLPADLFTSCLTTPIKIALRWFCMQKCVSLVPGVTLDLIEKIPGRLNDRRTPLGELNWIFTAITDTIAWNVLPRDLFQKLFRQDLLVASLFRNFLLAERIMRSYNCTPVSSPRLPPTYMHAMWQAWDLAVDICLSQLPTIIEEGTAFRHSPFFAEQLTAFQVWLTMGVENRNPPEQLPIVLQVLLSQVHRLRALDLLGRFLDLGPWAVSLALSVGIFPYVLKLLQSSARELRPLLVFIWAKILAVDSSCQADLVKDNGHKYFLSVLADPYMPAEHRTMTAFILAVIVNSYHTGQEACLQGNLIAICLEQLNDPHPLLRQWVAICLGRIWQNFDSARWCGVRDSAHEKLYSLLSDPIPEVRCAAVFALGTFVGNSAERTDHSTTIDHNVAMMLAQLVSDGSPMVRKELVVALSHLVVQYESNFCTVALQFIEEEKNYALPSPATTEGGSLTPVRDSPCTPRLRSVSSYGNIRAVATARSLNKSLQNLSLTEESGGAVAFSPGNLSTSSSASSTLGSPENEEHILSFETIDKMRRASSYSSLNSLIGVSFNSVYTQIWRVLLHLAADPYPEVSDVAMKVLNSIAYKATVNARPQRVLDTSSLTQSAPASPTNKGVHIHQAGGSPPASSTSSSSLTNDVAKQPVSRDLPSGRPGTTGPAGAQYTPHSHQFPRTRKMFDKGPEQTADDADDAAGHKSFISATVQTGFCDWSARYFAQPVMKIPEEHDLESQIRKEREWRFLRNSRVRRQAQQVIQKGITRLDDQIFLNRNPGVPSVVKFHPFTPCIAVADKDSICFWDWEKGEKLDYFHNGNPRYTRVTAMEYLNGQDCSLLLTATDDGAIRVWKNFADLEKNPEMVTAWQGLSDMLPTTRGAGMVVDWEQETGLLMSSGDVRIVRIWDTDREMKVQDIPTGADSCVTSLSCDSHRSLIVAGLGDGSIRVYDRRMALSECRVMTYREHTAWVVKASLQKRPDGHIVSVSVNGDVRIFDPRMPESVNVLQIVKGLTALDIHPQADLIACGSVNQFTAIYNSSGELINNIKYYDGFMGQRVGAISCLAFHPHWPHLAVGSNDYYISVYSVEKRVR

| binding result [1] | binding result [2] | binding result [3] | binding result [4] | Binder |
| --- | --- | --- | --- | --- |
| no binding | no binding |  |  | Suppressor of AKT (SAKT), endogenous protein of 293T cells (receptor, UniProt Q86TY3 28-774, looked up, also called C14ORF37) FPKIERRREIAHVHAEKGQSDKMNTDDLENSSVTSKQTPQLVVSEDPMMMSAVPSATSLNKAFSINKETQPGQAGLMQTERPGVSTPTESGVPSAEEVFGSSQPERISPESGLAKAMLTIAITATPSLTVDEKEELLTSTNFQPIVEEITETTKGFLKYMDNQSFATESQEGVGLGHSPSSYVNTKEMLTTNPKTEKFEADTDHRTTSFPGAESTAGSEPGSLTPDKEKPSQMTADNTQAAATKQPLETSEYTLSVEPETDSLLGAPEVTVSVSTAVPAASALSDEWDDTKLESVSRIRTPKLGDNEETQVRTEMSQTAQVSHEGMEGGQPWTEAAQVALGLPEGETHTGTALLIAHGNERSPAFTDQSSFTPTSLMEDMKVSIVNLLQSTGDFTESTKENDALFFLETTVSVSVYESEADQLLGNTMKDIITQEMTTAVQEPDATLSMVTQEQVATLELIRDSGKTEEEKEDPSPVSDVPGVTQLSRRWEPLATTISTTVVPLSFEVTPTVEEQMDTVTGPNEEFTPVLGSPVTPPGIMVGEPSISPALPALEASSERRTVVPSITRVNTAASYGLDQLESEEGQEDEDEEDEEDEDEEEEDEEEDEEDKDADSLDEGLDGDTELPGFTLPGITSQEPGLEEGNMDLLEGATYQVPDALEWEQQNQGLVRSWMEKLKDKAGYMSGMLVPVGVGIAGALFILGALYSIKVMNRRRRNGFKRHKRKQREFNSMQDRVMLLADSSEDEF |
|  |  | no binding | no binding | Suppressor of AKT (SAKT), endogenous protein of murine bone marrow (BM) cells (receptor, mouse, UniProt Q8BT18 48-775, looked up, Endogenous protein immunoprecipitated from murine BM cell lysates; also called C14ORF37) FPKVERRETAQEYAEKEQSQKMNTDDQENISFAPKYMLQQMSSEAPMVLSEGPSEIPLIKVFSVNKESHLPGAGLLHPTSPGVYSSSEPVVSASEQEPGPSLLERMSSEHSLSKVMLTVAVSSPASLNPDQEGPYNSLSTQPIVAAVTDVTHGSLDYLDNQLFAAKSQEAVSLGNSPSSSINTKEPEIIKADAAMGTTVVPGVDSTGDMEPDRERPSEMAADDGQSTTTKYLVTIPNNFLTTEPTAGSILGDAKVTVSVSTAGPVSSIFNEEWDDTKFESISRGRPPEPGDNAETQMRTKPPHGTYESFEGTEESPSSTAVLKVAPGHLGGEPALGTALVTALGDERSPVLTHQISFTPMSLAEDPEVSTMKLFPSAGGFRASTQGDRTQLSSETAFSTSQYESVPQQEAGNVLKDITQERKMATQAMNTTSPVVTQEHMATIEVPRGSGEPEEGMPSLSPVPAEVADAELSRRGESLATPASTTVVPLSLKLTSSMEDLMDTITGPSEEFIPVLGSPMAPPAMTVEAPTISSALPSEGRTSPSISRPNTAASYGLEQLESEEVEDDEDEEDEEDEEEEEEDEEDEEDEEDKETDSLYKDFDGDTEPPGFTLPGITSQEPDIRSGSMDLLEVATYQVPETIEWEQQNQGLVRSWMEKLKDKAGYMSGMLVPVGVGIAGALFILGALYSIKVMNRRRRNGFKRHKRKQREFNSMQDRVMLLADSSEDEF |
